# Reference: the RNAGym collection of RNA variant scans (doi:10.7554/elife.80360)
# B1: HDV Ribozyme (parent)
# chain: GGCCGGCAUGGUCCCAGCCUCCUCGCUGGCGCCGGCUGGGCAACAUUCCGAGGGGACCGUCCCCUCGGUAAUGGCGAAUGGGACCCA
# Variants of: B1
# Experiment: self-cleavage, relative activity (ratio to wild type); higher = more cleavage; co-transcriptional
row,Variant,self-cleavage
1,G2A G74C,0.0811
2,G2A G74U,0.073
3,G2U G68C,0.0339
4,G2A G34A,0.0536
5,G2A C84G,0.0391
6,G2U U72G,0
7,G2C G59U,0.0343
8,G2C A70C,0.0248
9,G1U G28U,0.295
10,G2C U46C,0.0475
11,G2C C21U,0.0615
12,G2C C21G,0.0396
13,G2C G82C,0.0272
14,G2C G81C,0.0583
15,G2C G81U,0.0203
16,G2U G5U,0.0163
17,G2U G5A,0.0171
18,C3A A42C,0.162
19,G2C G38U,0.0764
20,G2C C7U,0.089
21,G1U C26G,0.469
22,C3A G35C,0.604
23,C3A C4U,0.0341
24,C3A C4A,0.0542

row,Variant,self-cleavage
1,G2A C33A,0.0548
2,G2C C86G,0.0252
3,G1C G28U,0.107
4,G1U U79C,0.332
5,G1U U79A,0.178
6,G2A A56C,0.148
7,G2A A56U,0.115
8,G1U G10U,0.336
9,C3A C36G,0.0608
10,G2C G29C,0.109
11,G1U G2C,0.519
12,G1U G2U,0.366
13,G2C G6C,0.0386
14,G2C G6A,0.0839
15,G1U C61U,0.377
16,G2U A8C,0
17,G1U C19U,0.28
18,G1C G68U,0.17
19,G2C G40C,0.122
20,G1U A77U,0.146
21,G1U U72G,0.269
22,G1U U27A,0.44
23,G1U C3G,1.6
24,C3A G55U,0.563

row,Variant,self-cleavage
1,C3A G55C,0.642
2,G2A U37G,0
3,G2A U37C,0.232
4,G2A G29A,0.0288
5,G1U U46A,0.443
6,C3A A71C,0.105
7,C3A C44A,0.103
8,C3A C44G,0.0615
9,G1U G6C,0.656
10,C3A C33A,0.0698
11,G2C C22G,0.0875
12,G2C C22U,0.0567
13,G2C C22A,0.114
14,G1U A78U,0.415
15,G1U A78C,0.293
16,G1U G34A,0.298
17,G1U G34U,0.215
18,G1U A83U,0.358
19,G1C G76C,0.237
20,G2C U72C,0.142
21,G2C U72G,0.0791
22,G2U G54U,0.0589
23,C3A C64A,0.564
24,G2U C14A,0.12

row,Variant,self-cleavage
1,C3A G68A,0.408
2,G2C U12C,0.175
3,G1U C75G,0.162
4,G1C G38A,0
5,G2A C36U,0.537
6,G2A C36G,0.0764
7,C3A G38U,0.0471
8,C3A G38A,0.124
9,G2C G25C,0.0346
10,G2U C66A,0.0525
11,G2U C36A,0.366
12,G2U C36U,0.0308
13,G2C G67C,0.113
14,C3A C75G,0.0308
15,G1U C7U,0.269
16,G1C U46C,0.229
17,G2A G17U,0.0432
18,G2U G81C,0.0779
19,G2U G39C,0.0125
20,G1U G50U,0.466
21,G1U C33A,0.295
22,G2C G50U,0.0594
23,C3A G25A,0.0658
24,G1U U60G,0.443

row,Variant,self-cleavage
1,G1U C66G,0.211
2,G1U C66A,0.535
3,G2U C32G,0
4,G2A C13A,0.0231
5,G2A C13G,0.0282
6,G2U U9A,0.0237
7,G1U C48U,0.415
8,G1U C84U,0.389
9,G2A C63A,0.198
10,G2C U47A,0.0208
11,G2U G6U,0.0621
12,G2C U9A,0.0755
13,G2U U20C,0
14,G2U U20A,0.0563
15,G1U G67U,0.332
16,G2U A77C,0.0674
17,G2A G73A,0.0742
18,C3A G59U,0.755
19,C3A C7G,0.0223
20,C3A C7A,0.044
21,C3A G52C,0.676
22,C3A G52A,0.699
23,C3A C22G,0.0631
24,C3A C13U,0.213

row,Variant,self-cleavage
1,C3A C13G,0.0396
2,G1C G39U,0.116
3,G1C G39A,0.203
4,G1U C4G,0.634
5,G1U G5U,0.402
6,G1U G5C,0.755
7,C3A C85U,0.626
8,G2U C3A,0.0484
9,G2C U37G,0
10,G1U G40U,0.225
11,G1U G40A,0.426
12,G2U C15A,0.0231
13,G2C C26G,0.113
14,G2U C18A,0
15,G2A A43G,0.0234
16,G2A A71U,0.106
17,C3A C32A,0.0545
18,C3A C18G,0
19,G2C C4A,0.0282
20,G2C C4G,0.794
21,G2U U69G,0.0475
22,G2U U69A,0.0222
23,C3A G54U,0.453
24,C3A A56U,0.71

row,Variant,self-cleavage
1,G1U G38U,0.295
2,G1C G34C,0.0594
3,G1C G73C,0.142
4,G2A G28U,0.0364
5,G2A G28C,0.0415
6,G2C C18U,0.0615
7,G2C C75U,0.0594
8,G1C G31A,0.0302
9,C3A C66G,0.508
10,C3A C66U,0.549
11,G2A C3G,0.123
12,G2U G11A,0.0304
13,G2U G11U,0.0529
14,G2U G11C,0.0314
15,G1U C41A,0.496
16,G2A G67C,0.0536
17,G2A G67U,0.157
18,G2A C19U,0
19,G2C G31A,0.0382
20,G2U C30A,0.0396
21,G2C C58U,0.0256
22,G2U C48A,0.0378
23,G1U G68A,0.496
24,G1U,0.391

row,Variant,self-cleavage
1,C3A G73C,0.0755
2,C3A G73A,0.152
3,G2C A43C,0.147
4,G2A U12A,0
5,G2A U12G,0.0405
6,G2C C57U,0.073
7,G2C C66U,0.0373
8,G2C A45U,0
9,G2U G59C,0.0323
10,G2U C75U,0.021
11,G2C G11C,0.155
12,G2A C48G,0.157
13,G2A C48A,0.17
14,G2A C48U,0.216
15,G2A A51G,0.141
16,G2A G80C,0.0378
17,G2A G80A,0.0735
18,C3A A70G,0.686
19,G2U G53U,0.0256
20,G2U A42C,0.0297
21,G1U G17A,0.212
22,G2A C64U,0.18
23,G2A C64A,0.248
24,G1C G35U,0.155

row,Variant,self-cleavage
1,G2A C24A,0.0815
2,C3A C61A,0.596
3,G1U C49G,0.181
4,G1C U37A,0
5,G2A G76U,0.332
6,G1U A71C,0.297
7,G2U A71C,0.0161
8,G2C U20G,0
9,G2C C13U,0.153
10,G2U C58G,0
11,G2U C58A,0.0494
12,C3A G29A,0.012
13,G1U C13U,0.326
14,G2C C15A,0.0297
15,G2C C15G,0
16,G2A U27C,0.125
17,G2U G35C,0.016
18,G2A G5A,0.0343
19,C3A C21G,0.0115
20,G2C C48U,0.0923
21,G1U U37C,0.415
22,G2U U27G,0.0791
23,C3A A87C,0.515
24,C3A A87G,0.378

row,Variant,self-cleavage
1,G2A G35C,0.0326
2,G2U A51C,0.0528
3,C3A A83C,0.177
4,G1U G35U,0.288
5,G1U G35A,0.192
6,G2C A42C,0.122
7,G1C U9A,0.0978
8,C3A A51U,0.599
9,G2C U69A,0.0252
10,G2C U69G,0.157
11,G2A C85U,0.115
12,G2C C41U,0.0475
13,G2C C36G,0.26
14,G2C U65G,0.0264
15,G2U G73U,0.0361
16,G2A C14A,0.0804
17,G1U G39A,0.24
18,G2C A77C,0
19,G1C G25C,0
20,G2C C62G,0.0852
21,G1C U47A,0.256
22,G2U C57G,0.109
23,G2U U79C,0.0434
24,G1C U60G,0.0594

row,Variant,self-cleavage
1,G2U C85G,0.0966
2,G2C C49U,0.132
3,G2C C49A,0.0594
4,G2A U60G,0.314
5,G2A U60A,0.208
6,C3A C26A,0.795
7,G1C U69A,0.0875
8,G2C C14A,0.0615
9,G2C C14U,0.0504
10,G2U G25U,0.0449
11,G2A C7A,0
12,G2A C86A,0.172
13,G2A C86U,0.277
14,G2U C26G,0.0627
15,G2U G74U,0.056
16,G2U G74A,0.0163
17,G1U G82U,0.389
18,G1U G82A,0.241
19,G1U G82C,0.47
20,G2A U23A,0.219
21,G2A U23C,0.0511
22,G2A U23G,0.0886
23,G1C U20A,0
24,G2U G28A,0.0164

row,Variant,self-cleavage
1,G2U A87G,0.0468
2,G2U C62U,0.0314
3,G1C G53A,0.193
4,G2C G53C,0.125
5,G1C G55U,0.203
6,G1C G55C,0.214
7,G2A U72C,0.0455
8,G2A U72G,0.0906
9,G2C G17U,0.0784
10,G1U U69G,0.435
11,G2U C84G,0.0213
12,G2U C13U,0
13,G1U G73C,0.231
14,G1U G73U,0.422
15,G1U A8U,0.388
16,G1U A8C,0.415
17,G1U A8G,0.426
18,G2A A70G,0.0511
19,G2A A70C,0.157
20,G2A C32U,0.194
21,G2C A51U,0.0468
22,G2C A51C,0.0308
23,G2U C21A,0.0437
24,G2U C21U,0.0542

row,Variant,self-cleavage
1,G2C U79A,0.133
2,C3A G39C,0.0196
3,G2A G82A,0.0852
4,G2A G82U,0.0468
5,G1U C57G,0.196
6,G1U C57A,0.423
7,G1U C57U,0.428
8,C3A C62A,0.511
9,G1U C18A,0.304
10,G1U C18U,0.315
11,G1U C36A,0.158
12,G2C C3U,0.102
13,G2C C3A,0.103
14,G2A C15G,0.0277
15,G2A U20C,0.0536
16,G1C U72A,0.32
17,G1C U72C,0.111
18,G1U C64A,0.453
19,G1U C64G,0.432
20,G1U C85G,0.383
21,C3A G28C,0.0275
22,G2C A83U,0.0791
23,G2U C61U,0.103
24,G2U G29U,0.0712

row,Variant,self-cleavage
1,G2U A78G,0.089
2,G1U U47C,0.475
3,G2C G34C,0
4,G2U G82U,0.0171
5,G1U G81A,0.25
6,C3A A78C,0.0785
7,C3A A78G,0.119
8,G1U G80A,0.355
9,G1U G80C,0.272
10,C3A G5C,0.0339
11,G1U C24A,0.183
12,G1U C24G,0.447
13,G2A C4A,0.0615
14,G2A C4G,0.0563
15,G1U C44U,0.252
16,G1U C15U,0.269
17,G1U C15G,0.0852
18,G1U C15A,0.302
19,G2A C75U,0.0715
20,C3A G74C,0.0369
21,G2C C24U,0.0405
22,G2C C24G,0.0361
